Experimental data taken from US10654939 (BEIJING MABWORKS BIOTECH, dated 2020).

T1: recombinant rhesus CD40 (ECD)-hFc (rhesus monkey, UniProt P25942 21-193 (human entry))
T1 construct: Bought protein; also called rhCD40(ECd)-hFc; monkey CD40 (ECD)-hFc
T1 chain: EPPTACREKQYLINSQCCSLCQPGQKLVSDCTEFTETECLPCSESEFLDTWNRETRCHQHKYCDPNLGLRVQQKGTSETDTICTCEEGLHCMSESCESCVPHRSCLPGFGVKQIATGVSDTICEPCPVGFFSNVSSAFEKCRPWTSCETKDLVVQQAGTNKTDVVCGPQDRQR

T2: rhesus CD40 expressed on HEK293A cells (rhesus monkey, UniProt P25942 21-277 (human entry))
T2 construct: also called HEK293A/rhesusCD40
T2 chain: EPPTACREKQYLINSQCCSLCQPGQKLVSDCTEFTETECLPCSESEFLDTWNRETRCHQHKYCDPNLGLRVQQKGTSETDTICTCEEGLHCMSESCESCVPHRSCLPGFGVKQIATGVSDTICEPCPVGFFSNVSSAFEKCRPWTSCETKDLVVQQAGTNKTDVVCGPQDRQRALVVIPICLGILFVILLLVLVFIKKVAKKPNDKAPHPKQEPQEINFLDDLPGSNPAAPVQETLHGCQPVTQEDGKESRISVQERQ


Key:
[1] = biological target: T3, mouse CD40 expressed on HEK293A cells (mouse, UniProt P27512 20-289); assay: FACS, HEK293A/mouseCD40 cells
T3 construct: also called HEK293A/mouseCD40

[2] = biological target: T4, recombinant human CD40 (ECD)-his (human, UniProt P25942 21-193); assay: ELISA, hCD40(ECD)-his coated
T4 construct: Bought protein; also called hCD40(ECD)-his; TNFRSF5
Experimental: (§1) ELISA plates were coated with 500 ng/ml human CD40 (ECD)-his (Sino Biological, CN, Cat #: 10774-H08H) at 4° C. overnight. The wells were blocked with 200 μl of blocking buffer (PBS containing 1% BSA, 1% goat serum, and 0.05% Tween 20) for 2 hours at room temperature, and then 100 μl of serially diluted anti-CD40 antibodies (starting from 40000 ng/ml) were added to each well and incubated for 1 hour at RT. Plates were washed for 3 times with PBST (PBS+0.05% Tween 20), added with Goat-anti-mouse IgG-HRP (Simga, US, Cat #: A9309-1 ml) diluted 5000×, and incubated for 1 hour at RT. Plates were developed with freshly prepared Ultra-TMB (BD, US, Cat #: 555214) for 5 minutes at RT. Absorbance was read on a SpectraMax® i3X (Molecular Devies, US) at 450 nm.

[3] = biological target: T1, recombinant rhesus CD40 (ECD)-hFc; assay: ELISA, rhCD40(ECD)-hFc coated
Experimental: as §1
Species-cross-reactivity of the 20 CD40 mAbs to monkey or mouse CD40 was further assessed by direct ELISA. Briefly, 500 ng/ml monkey CD40 (ECD)-hFc (Sino Biological, CN, Cat #: 90097-C02H) or mouse CD40-hFc (Sino Biological, CN, Cat #: 50324-M03H) was coated on 96-well ELISA plates followed by incubation with 100 μl of serially diluted anti-CD40 antibodies (starting from 40000 ng/ml). Goat anti-mouse IgG conjugated with HRP (Sigma, US, Cat #: A9309-1ml) was used then.

[4] = biological target: T2, rhesus CD40 expressed on HEK293A cells; assay: FACS, HEK293A/rhesusCD40 cells
Experimental: (§2) Example 5 Mouse Anti-CD40 Monoclonal Antibodies Bound to Human and Rhesus CD40 Expressed on HEK293A Cells To further determine whether anti-CD40 antibodies bound to human, monkey or mouse CD40 expressed on HEK293A cells, a cell-based binding assay by FACS was performed using the HEK293A cells stably overexpressing human, monkey or mouse CD40 as generated in Example 1, respectively. Briefly, 10^5 HEK293A cells were seeded into each well of the 96-well plates and serially diluted anti-CD40 antibodies were added to the plates. After incubated at 4° C. for 1 hour, plates were washed 3 times with PBST. Then, an APC coupled Goat Anti-Mouse IgG (BioLegen, US, Cat #: 405308) diluted 500× was added to the plates. After incubation at 4° C. for 1 hour, the plates were washed with PBS for 3 times and then cell fluorescence was monitored using a FACS machine (BD).

[5] = biological target: T5, human CD40 expressed on cells (human, UniProt P25942 21-277); assay: cell-based or functional assay
mouse CD40-hFc = biological target: T6, mouse CD40-hFc (mouse, UniProt P27512 20-193); assay: ELISA, muCD40-hFc coated
T6 construct: Bought protein; also called muCD40-hFc

[6] = biological target: T5, human CD40 expressed on cells; assay: FACS, HEK293A/humanCD40 cells
Experimental: as §2

T5 sequence (P25942 21-277 limits assumed): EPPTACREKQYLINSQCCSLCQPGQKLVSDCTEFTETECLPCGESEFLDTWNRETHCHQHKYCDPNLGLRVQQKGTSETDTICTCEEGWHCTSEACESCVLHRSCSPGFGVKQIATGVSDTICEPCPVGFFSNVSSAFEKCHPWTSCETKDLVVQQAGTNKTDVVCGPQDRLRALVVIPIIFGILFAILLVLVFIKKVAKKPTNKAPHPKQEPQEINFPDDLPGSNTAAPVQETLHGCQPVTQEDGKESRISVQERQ
T6 sequence (P27512 20-193): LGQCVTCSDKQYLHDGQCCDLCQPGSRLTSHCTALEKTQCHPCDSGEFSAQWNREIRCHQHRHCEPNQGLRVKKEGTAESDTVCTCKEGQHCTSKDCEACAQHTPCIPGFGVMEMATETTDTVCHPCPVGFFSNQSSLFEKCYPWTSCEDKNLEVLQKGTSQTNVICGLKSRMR
T3 sequence (P27512 20-289 limits assumed): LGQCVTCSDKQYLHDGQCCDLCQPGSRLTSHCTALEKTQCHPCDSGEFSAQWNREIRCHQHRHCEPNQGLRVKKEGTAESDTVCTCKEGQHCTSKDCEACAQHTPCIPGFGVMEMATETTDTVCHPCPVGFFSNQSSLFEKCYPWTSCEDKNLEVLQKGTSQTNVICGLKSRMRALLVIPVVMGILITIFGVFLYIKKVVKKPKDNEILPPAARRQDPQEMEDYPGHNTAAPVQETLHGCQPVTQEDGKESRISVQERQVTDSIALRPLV
T4 sequence (P25942 21-193): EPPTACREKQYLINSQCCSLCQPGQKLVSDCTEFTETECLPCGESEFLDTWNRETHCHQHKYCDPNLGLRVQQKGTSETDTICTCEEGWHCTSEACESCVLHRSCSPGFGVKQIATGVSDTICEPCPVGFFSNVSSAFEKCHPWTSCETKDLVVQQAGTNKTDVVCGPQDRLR

| Binder | binding result [1] | EC50 [2] | EC50 [3] | EC50 [4] | HEK Blue EC50 [5] | binding result (mouse CD40-hFc) | EC50 [6] |
| --- | --- | --- | --- | --- | --- | --- | --- |
| 142F7 (mouse monoclonal antibody) (antibody, V domains shown) VH: EVQLEQSGAELVRPGTSVKVSCKASGYAFTNYLIEWGIQRPGQGLEWIGVINPGTGGTNYNEKFKDKATLTTDKSSSTAYMQLSSLTSDDSAVYFCARGGSGFAYWGQGTLVTVSA VL: DIVLTQTTSSLSASLGDRVTISCRASQDINNYLNWYQQKPDGTVKLLIYYTSRLHSGVPSRFSGSGSGTDYSLTISNLEQEDIATYFCQQGNTLPWTFGGGTKLEIK | no binding | 0.0171 µg/mL | 0.0201 µg/mL | 0.0807 µg/mL | 64.8 ng/mL | no binding | 0.0155 µg/mL |
| 77D9 (mouse monoclonal antibody) (antibody, V domains shown) VH: QVKLEESGGGLVKPGGSLKLSCAASGFTFRNYAMSWVRQSPGERLEWVAEVSGSGYYTYYPDTVTGRFTISRDNANNTLYLEVSSLRSEDTAMYYCTSRAYWGQGTLVTVSA VL: IVMTQSPTLSLPVSLGDQASISCRSSQSIVLTNGNTYLEWYLQRPGQSPKLLIYKVSNRFSGVPDRFSGSGSGTDFTLKISRVEAEDLGVYYCFQGSHVPYTFGGGTKLEIK | no binding | 0.0214 µg/mL | 0.0206 µg/mL | 0.117 µg/mL | 22.3 ng/mL | no binding | 0.033 µg/mL |
| 50F6 (mouse monoclonal antibody) (antibody, V domains shown) VH: QVQLEQSGDDLVKPGASVKLSCKASGYTFTTYWINWIKQRPGQGLEWIGRISPGSGSTHYNEMFKGKATLTVDTSSSTAYIQLSSLSSEDSAVYFCTRNDYWGQGTTLTVSS VL: DIVLTQSPLSLPVSLGDQASISCRSSQSIVNSNGNTYLEWYLQKPGQSPKLLIYKVSNRFSGVPDRFSGSGSGTDFTLKISRVEAEDLGVYYCFQGSHVPLTFGAGTKLELK | no binding | 0.0155 µg/mL | 0.016 µg/mL | 0.137 µg/mL | 42.2 ng/mL | no binding | 0.134 µg/mL |

Continued, values first:

| binding result [1] | EC50 [2] | EC50 [3] | EC50 [4] | HEK Blue EC50 [5] | binding result (mouse CD40-hFc) | EC50 [6] | Binder |
| --- | --- | --- | --- | --- | --- | --- | --- |
| no binding | 0.0153 µg/mL | 0.0152 µg/mL | 0.0159 µg/mL | 26.1 ng/mL | no binding | 0.0101 µg/mL | 7B4 (mouse monoclonal antibody) (antibody, V domains shown) VH: EVQLQESGPGLVKPSQSLSLTCSVTGYSITTNYYWNWIRQFPGNKLEWMGYIKYDGSNNYNPSLKNRISITRDTSKNQFFLKLNSVTTEDTATYYCARLDYWGQGTSVTVSS VL: DIVLTQSPLSLPVSLGDQASISCRSSQSLENSNGNTFLNWFLQKPGQSPQLLIYKVSNRFSGVLDRFSGTGSGTDFTLTISRVEAEDLGVYFCLQVTHVPFTFGSGTKLEIK |
| no binding | 0.0318 µg/mL | 0.0302 µg/mL | 0.184 µg/mL | 140 ng/mL | no binding | 0.203 µg/mL | 29A10 (mouse monoclonal antibody) (antibody, V domains shown) VH: QVKLEQSGGGLVKPGGSLKLSCAASGFTFSHYYMYWVRQTPEKRLEWVATISDAGSYTYYSDSVKGRFTISRDNAKNNLYLQMSSLKSDDTAMYFCARTYYRGDGGYWFFDVWGAGTAVTVSS VL: DIVITQSTSSLAVSVGEKVTMSCESSQSLLYSSNQKNYLAWYQQKPGQSPKLLIYWASTRESGVPDRFTASGSGTDFTLTISSVKAEDLAVYYCQQYYRSPLTFGAGTKLELK |
| no binding | 0.0291 µg/mL | 0.0365 µg/mL | 0.13 µg/mL | 264 ng/mL | no binding | 0.0779 µg/mL | 92F6 (mouse monoclonal antibody) (antibody, V domains shown) VH: QVQLEQSGAEVVKPGASVKVSCTASGFNIKDTYMHWVKQRPEQGLEWIGRIDPANGNTNYDPKFQGKATITADTSSNTGYLQLSSLTSEDTAVYYCSRWGYDWYFDVWGAGTSVTVSS VL: DIVITQSTAIMSASPGEKVTITCSASSSVSYIHWFQQKPGTSPKLWIYTTANLASGVPARFSGSGSGTSYSLTISRMEAEDAATYYCQQRSNYPFTFGSGTKLEIK |
